From patent publication US10065993B2, “Peptides and peptide/active compound conjugates for renal targeting” (MERCK PATENT GMBH, priority 2013, dated 2018)
Ends that are not written are not given here. Peptide text beside a SMILES is read from it. * marks the point of attachment. ξ: configuration not given here. Lipoyl(6ξ) = O=C(CCCCC1CCSS1)*

Columns and labels:
[1] = tested on: kidneys (i.e. proximal tubule cells, PTCs); conditions: in vivo; cited from earlier work
kidney = assay: Scintigraphic / SPECT distribution of radiolabelled peptides and conjugates (kidney selectivity); parameters: species or system NMRI mice; conditions: mouse, in vivo; for kidney specificity: iv
Description: The labelling is carried out using a 1 mM stock solution of the peptide to be labelled in water (dimethyl sulfoxide (DMSO) may have to be added for better solubility). Tyrosine-containing peptides are labelled with iodine-123, iodine-125 or iodine-131 (Perkin-Elmer, Waltham, Mass., USA) by means of the chloramine-T method. To this end, 20 μl of phosphate buffer (0.25 M, pH 7.4) are added to 10 μl of the stock solution, and the desired amount of radioactive iodine is added. For the labelling, 5 μl of chloramine-T (2 mg/ml of H2O) are added. The reaction is carried out for 30 seconds and is subsequently terminated using 10 μl of a saturated methionine solution. In order to separate off free iodine and by-products, the reaction mixture is purified by means of semipreparative HPLC (Chromolith RP-18e, 100×4.6 mm). The separation is carried out using a linear gradient from 0.1% of TFA in water to 0.1% of TFA in acetonitrile in 10 minutes (flow rate: 2 ml/min, UV absorption at 214 nm, γ detection). The solvent is subsequently removed in a rotary evaporator, and the labelled peptide is taken up in the desired buffer.
The tyrosine-containing peptides are labelled with ^125iodine by means of the chloramine-T method. For the labelling, a 1 mM stock solution in water is used. If necessary, DMSO is added for better solubility. To this end, 20 μl of phosphate buffer (0.25 M, pH 7.4) are added to 10 μl of the stock solution, and the desired amount of radioactive iodine is added. The labelling is carried out using 5 μl of chloramine-T (2 mg/ml of H2O). The reaction is carried out for 30 seconds and is subsequently terminated using 10 μl of a saturated methionine solution.
After the labelling, the peptide is purified by means of semi-preparative HPLC in order to remove the excess free iodine and other by-products. 100 μl of the 0.1 mM stock solution are in each case used for the injection. Before the injection, the radioactivity is recorded by means of a Geiger counter. […]

Molecule	kidney specificity (kidney)	also measured
C[C@@H](O)[C@@H]1NC(=O)[C@H](CCCCN)NC(=O)[C@@H](Cc2c[nH]c3ccccc23)NC(=O)[C@H](Cc2ccc(O)cc2)NC(=O)[C@@H](NC(=O)[C@@H](Cc2ccccc2)NC(=O)CN2CCN(CC(=O)O)CCN(CC(=O)O)CCN(CC(=O)O)CC2)CSSC[C@@H](C(=O)N[C@H](CO)[C@@H](C)O)NC1=O [DOTATOC]	–	uptake by the kidneys [1]: about 20%
diacetylcaffeic acid (KKEEE)3K: diacetylcaffeic acid bonded at the N terminal of y(KKEEE)3K (KKEEEKKEEEKKEEEK-NH2; not fully specified (N-terminus))	retain their high kidney specificity	–
NCCCCC(NC(=O)C(CCC(=O)O)NC(=O)C(CCC(=O)O)NC(=O)C(CCC(=O)O)NC(=O)C(CCCCNC(=O)CCCCC1CCSS1)NC(=O)C(CCCCN)NC(=O)C(CCCCN)NC(=O)C(CCC(=O)O)NC(=O)C(CCC(=O)O)NC(=O)C(CCC(=O)O)NC(=O)C(CCCCNC(=O)CCCCC1CCSS1)NC(=O)C(CCCCN)NC(=O)C(CCCCN)NC(=O)C(CCC(=O)O)NC(=O)C(CCC(=O)O)NC(=O)C(CCC(=O)O)NC(=O)C(CCCCNC(=O)CCCCC1CCSS1)NC(=O)C(CCCCN)NC(=O)C(CCCCN)NC(=O)C(N)Cc1ccc(O)cc1)C(N)=O (stereo not shown) [y(KKKε(lipoic acid)EEE)3K] (H-YKKK(Lipoyl(6ξ))EEEKKK(Lipoyl(6ξ))EEEKKK(Lipoyl(6ξ))EEEK-NH2; configuration not given here)	high kidney specificity	–
(APASLYN)2: dimer of literature kidney-selective peptide APASLYN (Denby et al.), SEQ ID NO: 90 (APASLYNAPASLYN; not fully specified)	–	kidney selectivity (kidney): already inadequate
